Holding throughout (assay): SPR (Biacore); KD of SG1 divided by KD of the variant for this FcgR;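 note: relative to parent M103205H795-SG1 carrying the SG1 human heavy chain constant region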
A general note: Surface plasmon resonance follows binding to a sensor surface in real time, without labels.

In assay [1] the target is T1, human FcγRIIaR extracellular domain with C-terminal His-tag (human, UniProt P12318 34-217).
T1 construct: Expressed in FreeStyle 293 cells and purified; also called human FcγRIIa (type R); FcgRIIaR; not shown: C-terminal His-tag
T1 chain: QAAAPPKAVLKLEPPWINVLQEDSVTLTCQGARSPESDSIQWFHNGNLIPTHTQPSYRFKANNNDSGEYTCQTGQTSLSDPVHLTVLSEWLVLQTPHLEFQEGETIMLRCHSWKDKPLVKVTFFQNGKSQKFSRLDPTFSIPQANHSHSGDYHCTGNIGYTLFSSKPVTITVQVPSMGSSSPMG
The method, then:
(§1) Regarding such interactions, KD values were calculated using the following 1:1 binding model described in BIACORE® T100 Software Handbook BR1006-48 Edition AE.
(§2) The behavior of interacting molecules according to the 1:1 binding model on BIACORE® can be described by Equation 1: Req=C·R max/(KD+C)+RI, wherein, Req is a plot of steady-state binding levels to analyte concentration. C is concentration, RI is bulk refractive index contribution in the sample, and Rmax is analyte binding capacity of the surface. When this equation is rearranged, KD can be expressed as Equation 2: KD=C·Rmax/(Req−RI)−C. KD can be calculated by substituting the values of Rmax, RI, and C into Equation 1 or Equation 2. From the current measurement conditions, RI=0, C=2 μmol/L can be used.
(§3) The variants were expressed using M103202L889-SK1 as the light chain and their affinity was analyzed.

The target of assay [2] is T2, cynomolgus monkey FcγRIIa3 extracellular domain with C-terminal His-tag (cynomolgus monkey).
T2 construct: Expressed in FreeStyle 293 cells and purified; also called cyno FcγRIIa3; cynoFcgRIIa3; not shown: C-terminal His-tag
T2 chain: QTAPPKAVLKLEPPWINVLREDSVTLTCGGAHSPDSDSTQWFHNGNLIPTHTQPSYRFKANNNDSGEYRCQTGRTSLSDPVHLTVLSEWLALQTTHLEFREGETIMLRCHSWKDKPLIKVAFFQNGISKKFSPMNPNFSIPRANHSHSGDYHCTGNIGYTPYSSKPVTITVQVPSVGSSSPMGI
On the procedure: as §1, §2, §3

The target of assay [3] is T3, human FcγRIIIaV extracellular domain with C-terminal His-tag (human, UniProt P08637 17-208).
T3 construct: Expressed in FreeStyle 293 cells and purified; also called FcgRIIIaV; not shown: C-terminal His-tag
On the procedure:
as §1, §2, §3

In assay [4] the target is T4, human FcγRIIb extracellular domain with C-terminal His-tag (human, UniProt P31994 43-217).
T4 construct: Expressed in FreeStyle 293 cells and purified; also called humanFcgRIIb; not shown: C-terminal His-tag
T4 sequence: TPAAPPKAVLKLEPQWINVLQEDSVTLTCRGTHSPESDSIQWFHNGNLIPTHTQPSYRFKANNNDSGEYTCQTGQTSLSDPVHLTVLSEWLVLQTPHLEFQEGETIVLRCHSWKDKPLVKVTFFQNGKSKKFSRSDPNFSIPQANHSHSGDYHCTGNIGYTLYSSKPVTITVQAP
The method, then: as §1, §2, §3

Assay [5] concerns the target T5, cynomolgus monkey FcγRIIIaS extracellular domain with C-terminal His-tag (cynomolgus monkey, UniProt Q8SPW2 21-206 at identity 1.00)).
T5 construct: Expressed in FreeStyle 293 cells and purified; also called cyno FcγRIIIaS; cynoFcγRIIIaS; not shown: C-terminal His-tag
T5 chain: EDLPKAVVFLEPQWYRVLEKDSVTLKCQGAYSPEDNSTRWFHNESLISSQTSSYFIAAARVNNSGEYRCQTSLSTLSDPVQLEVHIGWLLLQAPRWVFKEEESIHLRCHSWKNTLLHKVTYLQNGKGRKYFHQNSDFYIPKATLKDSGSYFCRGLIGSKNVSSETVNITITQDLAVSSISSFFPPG
The method, then:
as §1, §2, §3

In assay [6] the target is T6, cynomolgus monkey FcγRIIa2 extracellular domain with C-terminal His-tag (cynomolgus monkey).
T6 construct: Expressed in FreeStyle 293 cells and purified; also called cyno FcγRIIa2; cynoFcgRIIa2; not shown: C-terminal His-tag
T6 chain: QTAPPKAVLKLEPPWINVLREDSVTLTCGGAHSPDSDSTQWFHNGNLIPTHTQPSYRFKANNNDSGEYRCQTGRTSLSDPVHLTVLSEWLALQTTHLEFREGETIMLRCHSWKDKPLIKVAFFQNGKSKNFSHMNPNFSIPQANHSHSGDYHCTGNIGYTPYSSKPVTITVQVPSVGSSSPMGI
On the procedure:
as §1, §2, §3

Assay [7] addresses T7, cynomolgus monkey FcγRIIa1 extracellular domain with C-terminal His-tag (cynomolgus monkey).
T7 construct: Expressed in FreeStyle 293 cells and purified; also called cyno FcγRIIa1; cynoFcgRIIa1; not shown: C-terminal His-tag
T7 chain: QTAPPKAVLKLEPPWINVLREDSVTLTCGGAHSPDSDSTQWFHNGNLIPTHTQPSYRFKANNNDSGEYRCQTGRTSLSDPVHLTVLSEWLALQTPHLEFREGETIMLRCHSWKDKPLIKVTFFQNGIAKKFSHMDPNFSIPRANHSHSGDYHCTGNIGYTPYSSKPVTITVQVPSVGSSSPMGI
The method, then:
as §1, §2, §3

Assay [8] addresses T8, human FcγRIIaH extracellular domain with C-terminal His-tag (human, UniProt P12318 34-217).
T8 construct: Expressed in FreeStyle 293 cells and purified; also called human FcγRIIa (type H); FcgRIIaH; not shown: C-terminal His-tag
T8 sequence: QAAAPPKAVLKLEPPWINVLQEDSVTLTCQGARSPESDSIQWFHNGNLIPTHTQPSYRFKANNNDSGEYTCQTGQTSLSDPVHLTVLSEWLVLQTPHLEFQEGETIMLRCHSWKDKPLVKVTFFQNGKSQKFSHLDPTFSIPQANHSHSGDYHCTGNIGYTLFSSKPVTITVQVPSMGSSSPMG
The method, then: as §1, §2, §3

Assay [9] addresses T9, cynomolgus monkey FcγRIIb extracellular domain with C-terminal His-tag (cynomolgus monkey).
T9 construct: Expressed in FreeStyle 293 cells and purified; also called cyno FcγRIIb; cynoFcγRIIb; not shown: C-terminal His-tag
T9 chain: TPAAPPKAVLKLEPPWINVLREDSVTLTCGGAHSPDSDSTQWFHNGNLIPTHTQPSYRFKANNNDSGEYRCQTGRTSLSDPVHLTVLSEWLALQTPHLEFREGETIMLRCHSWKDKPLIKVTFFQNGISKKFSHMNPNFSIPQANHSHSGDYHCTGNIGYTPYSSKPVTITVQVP
The method, then: as §1, §2, §3

T3 sequence (P08637 17-208 F176V): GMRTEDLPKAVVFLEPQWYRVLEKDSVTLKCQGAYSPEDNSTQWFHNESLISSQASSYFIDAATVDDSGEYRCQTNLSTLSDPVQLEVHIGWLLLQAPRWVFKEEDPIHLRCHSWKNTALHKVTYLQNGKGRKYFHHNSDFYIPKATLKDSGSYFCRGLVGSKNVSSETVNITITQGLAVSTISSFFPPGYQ

B1: M103205H795-MY208 / M103202L889-SK1 (antibody, human IgG1, kappa)
heavy: QVTLKESGPVLVKPTETLTLTCTVSGIDLSHDDISWVRQAPGKGLEWVGIISYAGSTYYASWAKGRLTISKDTSKNQVVLTMTNMDPVDTATYYCARGVPAYSHGGDLWGQGTLVTVSSASTKGPSVFPLAPSSKSTSGGTAALGCLVKDYFPEPVTVSWNSGALTSGVHTFPAVLQSSGLYSLSSVVTVPSSSLGTQTYICNVNHKPSNTKVDKKVEPKSCDKTHTCPPCPAPELLNGPSVFLFPPKPKDTLMISRTPEVTCVVVDVSDEDPEVKFNWYVDGVEVHNAKTKPREELYNSTYRVVSVLTVLHQDWLNGKEYKCKVSNKALPAPIEKTISKAKGQPREPQVYTLPPSREEMTKNQVSLTCLVKGFYPSDIAVEWESNGQPENNYKTTPPVLDSDGSFFLYSKLTVDKSRWQQGNVFSCSVMHEALHNHYTQKSLSLSP
light: DIVMTQSPATLSLSPGERATLSCTSSQSVYHANWLSWFQQKPGQPPKLLIYWASTLAYGVPSRFSGSGSGTDFTLTISSLQPEDAATYYCAGGYGGGRYAFGQGTKVEIKRTVAAPSVFIFPPSDEQLKSGTASVVCLLNNFYPREAKVQWKVDNALQSGNSQESVTEQDSKDSTYSLSSTLTLSKADYEKHKVYACEVTHQGLSSPVTKSFNRGEC
notes: Fc variant of M103205H795-SG1, expressed with M103202L889-SK1 as light chain
As to B1, the “KD fold (SG1 = 1)” value stood at 0.5 fold in assay [1]; 2.5 fold in assay [2]; 0.08 fold in assay [3]; 4.2 fold in [4]; 0.18 fold in [5]; 5.4 fold in [6]. Besides, the “KD fold (SG1 = 1)” value in [7] was found to be 2.7 fold; in assay [8] it was 0.8 fold; in [9] it was 2.8 fold.

B2: M103205H795-MY210 / M103202L889-SK1 (antibody, human IgG1, kappa)
heavy: QVTLKESGPVLVKPTETLTLTCTVSGIDLSHDDISWVRQAPGKGLEWVGIISYAGSTYYASWAKGRLTISKDTSKNQVVLTMTNMDPVDTATYYCARGVPAYSHGGDLWGQGTLVTVSSASTKGPSVFPLAPSSKSTSGGTAALGCLVKDYFPEPVTVSWNSGALTSGVHTFPAVLQSSGLYSLSSVVTVPSSSLGTQTYICNVNHKPSNTKVDKKVEPKSCDKTHTCPPCPAPELLNGPSVFLFPPKPKDTLMISRTPEVTCVVVDVSDEDPEVKFNWYVDGVEVHNAKTKPREEQYNSTYRVVSVLTVLHQDWLNGKEYKCKVSNTALPKPIEKTISKAKGQPREPQVYTLPPSREEMTKNQVSLTCLVKGFYPSDIAVEWESNGQPENNYKTTPPVLDSDGSFFLYSKLTVDKSRWQQGNVFSCSVMHEALHNHYTQKSLSLSP
light: DIVMTQSPATLSLSPGERATLSCTSSQSVYHANWLSWFQQKPGQPPKLLIYWASTLAYGVPSRFSGSGSGTDFTLTISSLQPEDAATYYCAGGYGGGRYAFGQGTKVEIKRTVAAPSVFIFPPSDEQLKSGTASVVCLLNNFYPREAKVQWKVDNALQSGNSQESVTEQDSKDSTYSLSSTLTLSKADYEKHKVYACEVTHQGLSSPVTKSFNRGEC
notes: as for B1
Regarding B2, the “KD fold (SG1 = 1)” value in [1] came out at 0.8 fold; in assay [2] it was 7.4 fold; in [3], 0.05 fold; in assay [4], 4.7 fold; in assay [5], 0.15 fold; in [6], 8.1 fold. Besides, the “KD fold (SG1 = 1)” value in assay [7] was 3.4 fold; in [8], 0.6 fold; in assay [9] it was 6.4 fold.

B3: M103205H795-MY211 / M103202L889-SK1 (antibody, human IgG1, kappa)
heavy: QVTLKESGPVLVKPTETLTLTCTVSGIDLSHDDISWVRQAPGKGLEWVGIISYAGSTYYASWAKGRLTISKDTSKNQVVLTMTNMDPVDTATYYCARGVPAYSHGGDLWGQGTLVTVSSASTKGPSVFPLAPSSKSTSGGTAALGCLVKDYFPEPVTVSWNSGALTSGVHTFPAVLQSSGLYSLSSVVTVPSSSLGTQTYICNVNHKPSNTKVDKKVEPKSCDKTHTCPPCPAPELLNGPVVFLFPPKPKDTLMISRTPEVTCVVVDVSDEDPEVKFNWYVDGVEVHNAKTKPREEQYNSTYRVVSVLTVLHQDWLNGKEYKCKVSNTALPKPIEKTISKAKGQPREPQVYTLPPSREEMTKNQVSLTCLVKGFYPSDIAVEWESNGQPENNYKTTPPVLDSDGSFFLYSKLTVDKSRWQQGNVFSCSVMHEALHNHYTQKSLSLSP
light: DIVMTQSPATLSLSPGERATLSCTSSQSVYHANWLSWFQQKPGQPPKLLIYWASTLAYGVPSRFSGSGSGTDFTLTISSLQPEDAATYYCAGGYGGGRYAFGQGTKVEIKRTVAAPSVFIFPPSDEQLKSGTASVVCLLNNFYPREAKVQWKVDNALQSGNSQESVTEQDSKDSTYSLSSTLTLSKADYEKHKVYACEVTHQGLSSPVTKSFNRGEC
notes: as for B1
Regarding B3, the “KD fold (SG1 = 1)” value in [1] stood at 0.8 fold; in assay [2], 6.3 fold; in assay [3], 0.17 fold; in assay [4] it was 5.6 fold; in assay [5], 0.12 fold; in [6], 3.8 fold. For the same molecule, the “KD fold (SG1 = 1)” value in assay [7] worked out at 4.3 fold; in assay [8] it was 0.6 fold; in assay [9], 3.8 fold.

The values are drawn from US20200317768A1 (published 2020).
